Results published in publication PMC9482650, “Quantitative fragmentomics allow affinity mapping of interactomes” (Nature Communications, 2022).

B1: ADAM17, P78536 (peptide)
chain: NRVDSKETEC
B2: NECTIN3, Q9NQS3 (peptide)
chain: SVISRREWYV
B3: YAP1, P46937 (peptide)
chain: LDKESFLTWL
B4: UNC93A, Q86WB7 (peptide)
chain: AEDEEIQTKM

Legend:
Assay in all cases: holdup assay
Design in all cases: key: below the threshold = too weak to quantify, mostly under pKd 3.1 to 4
Settings in all cases: plain residues with an end cap or a label only (N-terminal biotin on a linker: ado-ado)
AHNAK1, Q09666 = molecular target: AHNAK1, Q09666
Chain of AHNAK1, Q09666 (Q09666 4-100): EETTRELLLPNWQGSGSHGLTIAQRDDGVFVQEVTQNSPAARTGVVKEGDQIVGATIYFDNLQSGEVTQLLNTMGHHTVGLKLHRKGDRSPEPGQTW

APBA3_1, O96018 = molecular target: T1, APBA3_1, O96018
T1 sequence (O96018 389-490, limits assumed, looked up): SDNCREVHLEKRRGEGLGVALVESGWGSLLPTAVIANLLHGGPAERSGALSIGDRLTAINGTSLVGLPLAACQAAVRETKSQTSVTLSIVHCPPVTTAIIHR

DLG3_3, Q92796 = molecular target: T2, DLG3_3, Q92796
T2 sequence (Q92796 374-475, limits assumed, looked up): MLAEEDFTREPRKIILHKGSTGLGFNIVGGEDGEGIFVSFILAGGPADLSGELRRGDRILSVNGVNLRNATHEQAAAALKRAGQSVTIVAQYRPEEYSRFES

DLG4_3, P78352 = molecular target: DLG4_3, P78352
Chain of DLG4_3, P78352 (P78352 306-403): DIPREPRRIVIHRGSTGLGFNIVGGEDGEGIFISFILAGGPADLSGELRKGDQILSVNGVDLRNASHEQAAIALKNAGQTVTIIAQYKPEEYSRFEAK

DLG5_1, Q8TDM6 = molecular target: DLG5_1, Q8TDM6
Chain of DLG5_1, Q8TDM6 (Q8TDM6 617-713): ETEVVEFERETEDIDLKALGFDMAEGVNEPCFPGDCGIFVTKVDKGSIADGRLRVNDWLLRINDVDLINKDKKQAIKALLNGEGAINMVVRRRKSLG

FRMPD2_3, Q68DX3 = molecular target: FRMPD2_3, Q68DX3
Chain of FRMPD2_3, Q68DX3 (Q68DX3 1073-1166): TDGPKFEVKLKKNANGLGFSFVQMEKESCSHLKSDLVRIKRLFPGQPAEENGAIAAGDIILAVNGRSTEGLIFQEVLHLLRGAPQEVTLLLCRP

FRMPD4, Q14CM0 = molecular target: FRMPD4, Q14CM0
Chain of FRMPD4, Q14CM0 (Q14CM0 67-160): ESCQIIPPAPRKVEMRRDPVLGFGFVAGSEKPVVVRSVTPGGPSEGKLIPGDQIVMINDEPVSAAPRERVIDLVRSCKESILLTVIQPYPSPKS

GIPC2, Q8TF65 = molecular target: GIPC2, Q8TF65
Chain of GIPC2, Q8TF65 (Q8TF65 112-203): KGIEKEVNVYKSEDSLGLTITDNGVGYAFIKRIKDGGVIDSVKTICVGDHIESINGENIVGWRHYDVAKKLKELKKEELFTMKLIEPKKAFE

GORASP1, Q9BQQ3 = molecular target: GORASP1, Q9BQQ3
Chain of GORASP1, Q9BQQ3 (Q9BQQ3 1-208): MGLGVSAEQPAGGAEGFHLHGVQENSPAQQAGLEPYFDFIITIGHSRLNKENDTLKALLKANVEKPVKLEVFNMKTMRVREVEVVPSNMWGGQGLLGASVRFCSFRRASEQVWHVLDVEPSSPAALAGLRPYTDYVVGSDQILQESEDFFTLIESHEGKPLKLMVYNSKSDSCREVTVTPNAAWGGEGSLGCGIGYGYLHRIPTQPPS

GRID2IP_2, A4D2P6 = molecular target: GRID2IP_2, A4D2P6
Chain of GRID2IP_2, A4D2P6 (A4D2P6 272-370): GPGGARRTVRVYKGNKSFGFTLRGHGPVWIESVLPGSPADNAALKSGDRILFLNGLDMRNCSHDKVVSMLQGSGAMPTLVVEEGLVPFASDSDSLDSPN

IL16_3, Q14005 = molecular target: IL16_3, Q14005
Chain of IL16_3, Q14005 (Q14005 1107-1207): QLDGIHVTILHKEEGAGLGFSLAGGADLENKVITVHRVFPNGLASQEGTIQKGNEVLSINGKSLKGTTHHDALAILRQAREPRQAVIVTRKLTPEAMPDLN

Inadl_1, Q8NI35 = molecular target: Inadl_1, Q8NI35
Chain of Inadl_1, Q8NI35 (Q8NI35 113-229): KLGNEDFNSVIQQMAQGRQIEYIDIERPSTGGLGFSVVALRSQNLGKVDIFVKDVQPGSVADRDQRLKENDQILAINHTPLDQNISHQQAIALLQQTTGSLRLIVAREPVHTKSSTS

Inadl_4, Q8NI35 = molecular target: Inadl_4, Q8NI35
Chain of Inadl_4, Q8NI35 (Q8NI35 547-651): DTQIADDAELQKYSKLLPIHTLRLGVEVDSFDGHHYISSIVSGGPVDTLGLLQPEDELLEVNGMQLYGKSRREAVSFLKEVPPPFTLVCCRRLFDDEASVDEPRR

Inadl_5, Q8NI35 = molecular target: Inadl_5, Q8NI35
Chain of Inadl_5, Q8NI35 (Q8NI35 673-780): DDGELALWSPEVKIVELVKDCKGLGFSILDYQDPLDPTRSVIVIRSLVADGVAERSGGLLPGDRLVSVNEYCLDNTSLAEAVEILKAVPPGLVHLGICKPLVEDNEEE

Inadl_9, Q8NI35 = molecular target: Inadl_9, Q8NI35
Chain of Inadl_9, Q8NI35 (Q8NI35 1530-1615): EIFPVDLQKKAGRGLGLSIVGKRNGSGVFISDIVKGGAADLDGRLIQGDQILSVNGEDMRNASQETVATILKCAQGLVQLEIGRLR

LIMK2, P53671 = molecular target: LIMK2, P53671
Chain of LIMK2, P53671 (P53671 143-248): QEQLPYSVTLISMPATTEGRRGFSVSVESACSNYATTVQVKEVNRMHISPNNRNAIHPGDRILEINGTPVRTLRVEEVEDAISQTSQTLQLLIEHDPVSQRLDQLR

LNX1_3, Q8TBB1 = molecular target: LNX1_3, Q8TBB1
Chain of LNX1_3, Q8TBB1 (Q8TBB1 500-596): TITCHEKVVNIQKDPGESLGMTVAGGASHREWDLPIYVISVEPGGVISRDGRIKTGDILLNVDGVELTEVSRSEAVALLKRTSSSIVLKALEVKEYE

LNX2_3, Q8N448 = molecular target: T3, LNX2_3, Q8N448
T3 sequence (Q8N448 463-564, limits assumed, looked up): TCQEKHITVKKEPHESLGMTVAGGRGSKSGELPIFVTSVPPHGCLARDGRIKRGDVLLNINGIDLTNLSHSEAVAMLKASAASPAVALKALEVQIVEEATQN

LRRC7, Q96NW7 = molecular target: T4, LRRC7, Q96NW7
T4 sequence (Q96NW7 1440-1537, limits assumed, looked up): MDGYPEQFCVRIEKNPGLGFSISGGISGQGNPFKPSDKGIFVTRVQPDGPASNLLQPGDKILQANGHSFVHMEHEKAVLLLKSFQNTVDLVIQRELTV

MAGI1_2, Q96QZ7 = molecular target: MAGI1_2, Q96QZ7
Chain of MAGI1_2, Q96QZ7 (Q96QZ7 456-580): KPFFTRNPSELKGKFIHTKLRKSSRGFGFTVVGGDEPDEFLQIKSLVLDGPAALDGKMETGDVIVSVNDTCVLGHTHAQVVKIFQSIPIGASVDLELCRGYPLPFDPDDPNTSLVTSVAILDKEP

NHERF3_4, Q5T2W1 = molecular target: T5, NHERF3_4, Q5T2W1
T5 sequence (Q5T2W1 373-468, limits assumed, looked up): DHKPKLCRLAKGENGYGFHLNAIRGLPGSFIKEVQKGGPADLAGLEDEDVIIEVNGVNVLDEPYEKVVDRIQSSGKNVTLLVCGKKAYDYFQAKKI

NHERF4_4, Q86UT5 = molecular target: NHERF4_4, Q86UT5
Chain of NHERF4_4, Q86UT5 (Q86UT5 464-550): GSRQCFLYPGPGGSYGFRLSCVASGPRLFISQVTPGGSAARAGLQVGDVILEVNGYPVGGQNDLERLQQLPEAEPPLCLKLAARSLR

NOS1, P29475 = molecular target: NOS1, P29475
Chain of NOS1, P29475 (P29475 9-101): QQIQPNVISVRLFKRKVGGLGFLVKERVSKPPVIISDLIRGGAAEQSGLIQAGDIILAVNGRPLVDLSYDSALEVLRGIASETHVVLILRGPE

PDZD2_2, O15018 = molecular target: T6, PDZD2_2, O15018
T6 sequence (O15018 329-429, limits assumed, looked up): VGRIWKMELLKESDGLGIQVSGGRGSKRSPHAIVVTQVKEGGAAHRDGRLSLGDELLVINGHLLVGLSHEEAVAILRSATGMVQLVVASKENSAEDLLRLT

PDZRN3_1, Q9UPQ7 = molecular target: T7, PDZRN3_1, Q9UPQ7
T7 sequence (Q9UPQ7 244-349, limits assumed, looked up): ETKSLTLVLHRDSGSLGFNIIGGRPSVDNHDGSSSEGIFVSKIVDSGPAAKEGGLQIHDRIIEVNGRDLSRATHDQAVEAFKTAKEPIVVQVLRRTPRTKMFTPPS

SHANK1, Q9Y566 = molecular target: T8, SHANK1, Q9Y566
T8 sequence (Q9Y566 658-767, limits assumed, looked up): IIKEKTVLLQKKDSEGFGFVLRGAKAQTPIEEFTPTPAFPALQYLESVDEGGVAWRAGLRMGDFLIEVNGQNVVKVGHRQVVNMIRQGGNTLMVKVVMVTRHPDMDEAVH

SIPA1L2, Q9P2F8 = molecular target: T9, SIPA1L2, Q9P2F8
T9 sequence (Q9P2F8 945-1036, limits assumed, looked up): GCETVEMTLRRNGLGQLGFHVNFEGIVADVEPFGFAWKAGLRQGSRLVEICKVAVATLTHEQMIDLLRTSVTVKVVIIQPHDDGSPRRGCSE

SNX27, Q96L92 = molecular target: SNX27, Q96L92
TJP1_3, Q07157 = molecular target: TJP1_3, Q07157
Chain of TJP1_3, Q07157 (Q07157 416-512): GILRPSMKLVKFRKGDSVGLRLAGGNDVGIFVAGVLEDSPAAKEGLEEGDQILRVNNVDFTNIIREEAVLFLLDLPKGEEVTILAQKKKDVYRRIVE

pKd (AHNAK1, Q09666)	pKd (APBA3_1, O96018)	pKd (DLG3_3, Q92796)	pKd (DLG4_3, P78352)	pKd (DLG5_1, Q8TDM6)	pKd (FRMPD2_3, Q68DX3)	pKd (FRMPD4, Q14CM0)	pKd (GIPC2, Q8TF65)	pKd (GORASP1, Q9BQQ3)	pKd (GRID2IP_2, A4D2P6)	pKd (IL16_3, Q14005)	pKd (Inadl_1, Q8NI35)	pKd (Inadl_4, Q8NI35)	pKd (Inadl_5, Q8NI35)	pKd (Inadl_9, Q8NI35)	pKd (LIMK2, P53671)	pKd (LNX1_3, Q8TBB1)	pKd (LNX2_3, Q8N448)	pKd (LRRC7, Q96NW7)	pKd (MAGI1_2, Q96QZ7)	also measured	Binder
below the threshold	below the threshold	3.95	4.42	below the threshold	below the threshold	below the threshold	4.27	below the threshold	below the threshold	below the threshold	below the threshold	below the threshold	below the threshold	below the threshold	3.48	below the threshold	below the threshold	below the threshold	below the threshold	pKd (NHERF3_4, Q5T2W1): 3.49; pKd (NHERF4_4, Q86UT5): below the threshold; pKd (NOS1, P29475): below the threshold; pKd (PDZD2_2, O15018): below the threshold; pKd (PDZRN3_1, Q9UPQ7): 3.57; pKd (SHANK1, Q9Y566): below the threshold; pKd (SIPA1L2, Q9P2F8): below the threshold; pKd (SNX27, Q96L92): 5.06; pKd (TJP1_3, Q07157): below the threshold	B1
below the threshold	below the threshold	3.71	3.84	below the threshold	4.44	3.97	below the threshold	4.63	3.49	below the threshold	4.25	below the threshold	5.43	4.51	below the threshold	4.81	below the threshold	3.52	4.78	pKd (NHERF3_4, Q5T2W1): below the threshold; pKd (NHERF4_4, Q86UT5): 4.07; pKd (NOS1, P29475): 4.04; pKd (PDZD2_2, O15018): 5.08; pKd (PDZRN3_1, Q9UPQ7): below the threshold; pKd (SHANK1, Q9Y566): below the threshold; pKd (SIPA1L2, Q9P2F8): below the threshold; pKd (SNX27, Q96L92): below the threshold; pKd (TJP1_3, Q07157): 3.67	B2
below the threshold	below the threshold	below the threshold	below the threshold	below the threshold	below the threshold	5.25	below the threshold	5.11	4.52	below the threshold	4.54	below the threshold	below the threshold	3.99	below the threshold	below the threshold	below the threshold	4.17	3.49	pKd (NHERF3_4, Q5T2W1): 4.18; pKd (NHERF4_4, Q86UT5): 4.16; pKd (NOS1, P29475): 4.03; pKd (PDZD2_2, O15018): 5.88; pKd (PDZRN3_1, Q9UPQ7): 3.73; pKd (SHANK1, Q9Y566): 5.4; pKd (SIPA1L2, Q9P2F8): below the threshold; pKd (SNX27, Q96L92): 5.11; pKd (TJP1_3, Q07157): below the threshold	B3
below the threshold	below the threshold	below the threshold	below the threshold	below the threshold	below the threshold	3.63	below the threshold	below the threshold	3.77	below the threshold	below the threshold	below the threshold	below the threshold	below the threshold	below the threshold	below the threshold	below the threshold	below the threshold	below the threshold	pKd (NHERF3_4, Q5T2W1): 4.52; pKd (NHERF4_4, Q86UT5): below the threshold; pKd (NOS1, P29475): below the threshold; pKd (PDZD2_2, O15018): below the threshold; pKd (PDZRN3_1, Q9UPQ7): below the threshold; pKd (SHANK1, Q9Y566): 5.21; pKd (SIPA1L2, Q9P2F8): below the threshold; pKd (SNX27, Q96L92): 4.5; pKd (TJP1_3, Q07157): below the threshold	B4
